Like-named read-outs stand apart in the source and are kept apart here.
T1: GII.4 Sydney 2012 shell (S) domain (UniProt P54635 1-221)
T1 chain: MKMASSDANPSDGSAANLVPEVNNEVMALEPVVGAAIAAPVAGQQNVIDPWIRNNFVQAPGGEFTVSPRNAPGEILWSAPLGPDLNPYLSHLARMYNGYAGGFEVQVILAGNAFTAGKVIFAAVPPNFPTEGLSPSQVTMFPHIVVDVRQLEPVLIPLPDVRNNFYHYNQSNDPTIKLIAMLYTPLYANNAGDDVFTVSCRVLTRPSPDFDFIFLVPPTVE


Key:
[1] = molecular target: T1, GII.4 Sydney 2012 shell (S) domain; assay: ELISA
[2] = molecular target: T2, GII.4 Houston 2002 (ABY27560.1) VLPs (UniProt P54635 1-539); assay: ELISA binding
[3] = molecular target: T2, GII.4 Houston 2002 (ABY27560.1) VLPs; assay: VLP blockade
[4] = molecular target: Glutathione S-transferase (GST)-tagged GII.4 Sydney 2012 P domain dimers; assay: ELISA
GII.6 (AF414410) VLPs = GII.6 (AF414410) VLPs (norovirus GII.6); assay: ELISA
[5] = molecular target: T1, GII.4 Sydney 2012 shell (S) domain; assay: ELISA
GII.3 = GII.3 (norovirus GII.3); assay: ELISA
GII.17 = GII.17 (norovirus GII.17); assay: ELISA
GI.3 = GI.3 (norovirus GI.3); assay: ELISA
GII.13 = GII.13 (norovirus GII.13); assay: ELISA

| Binder | EC50 [2] [µg/mL] | EC50 [3] [µg/mL] | EC50 [4] [µg/mL] | further results |
| --- | --- | --- | --- | --- |
| NORO-256A (antibody, V domains shown) VH: QVQLVESGGGVVQAGRSLRLSCAASGFTFRSYGMHWVRQAPGKGLEWVAIISYDGGSKYYADSVKGRFTISRDNSKNTLYLQMNSLRVEDTALYYCAKDFLRVYSYGWHSFDIWGLGTLVTVSS VL: QSVLTQPPSVSAAPGQRVTISCSGSSSNIGTYYVSWYQHLPGTAPKLLIYDNDKRPSGIPDRFSASKSGTSATLDIAGLQTGDEADYYCGTWDLSLTAGWVFGGGTKLTVL | 0.4 | > 100 |  | EC50 [1]: 0.4 µg/mL |
| NORO-123 (antibody, V domains shown) VH: QVQLVESGGGVVQPGRSLRLSCSTSGFTFSQYPMHWVRQAPGKGLEWVALISYDGMNKYYADSVRGRFTISRDNSENTQYLQMNSLRGDDTAVYYCARVTGDCTGNRCSYWAYYYYGLDVWGQGTLVTVSS VL: QSALTQPPSASGSPGQSVTISCTGTSSDVGGYKYVSWYQQHPGKAPKLMIYEVTRRPSGVPDRFSGSKSGNTAFLTVSGLQAEDEADYYCGSYAGSTTSGYVFGTGTKVIVL | 0.6 | 2.5 | 6.1 |  |
| NORO-312A (antibody, V domains shown) VH: QVQLVESGGALVKPGESLRLSCAASGFTFSDSYMSWIRQAPGKGLEWVAYISGIMSSTNYADSVKGRFTISRDNGKNSVYLQMNNLRAEDTAVYYCARDAQYCSGGRCYLVFDYWGQGTLVTVSS VL: QSVLTQPPSVSGAPGQRVTISCTGSSSNIGAGYEVHWYQQLPGAAPKLIIYGNNNRPSGVPDRFSGSKSGTSASLAITGLQADDEADYYCQSYDNRLRVFGGGTKLTVL |  |  |  | EC50 [1]: 9.9 µg/mL |
| NORO-115 (antibody, V domains shown) VH: QVQLVESGGGLVKPGGSLRLSCTASGITISGYYMSWIRQAPGKGLEWIVYINTSGRTIYYADSVKGRFSVSRDNAKESLYLQMDSLTVDDTGIYYCARDRLPASGSHWFHPWGQGTLVTVSS VL: DIVMTQSPDSLAVSLGGRATINCKSSQSVLYTSDNKNYLAWYQQQPGQPPKLLISWASTRESGVPDRFSGSGSGTDFTLTISNLQAEDVAVYYCQQYYNSPLAFGGGTKVEIK | 1.1 | 2.3 | 0.1 |  |
| NORO-273A (antibody, V domains shown) VH: QVQLVQSGAEVKKPGASVKISCKASGYDFTSFPMHWVRLGPGQRLEWMGWISAANGNTKYSQKFQDRFTITRDTSASIVHMELSSLRSEDTAVYYCARGGYSSGLYRYSNYYYGMTVWGQGTLVTVSS VL: DIVMTQTPLSLSVTPGQPASISCKSSESLLHNDRKTYLFWYLQKPGQPPQLLIFQVSNRFSGVPDRFSGSGSGTDFTLRISRVEAEDVGIYYCLQTTQLPLTFGGGTKVEIK |  | 5.2 |  |  |
| NORO-250B (antibody, V domains shown) VH: QVQLVESGGGLVKPGGSLTLSCAASGFTFSDYYMNWIRQAPGKRLEWVSYISGIMSSTNYADSVKGRFTISRDTAKKSVYLQMNSLRAEDTAVYYCARATSQGATSYYFDSWGQGTLVTVSS VL: QSVLTQPPSVSGAPGQRVTISCTGSSSNIGADYDVHWYQQLPGAAPRLLIYADINRPSGVPDRFSGSKSGTSASLAITGLQAEDEADYYCQSYDRSVSGSAVFGGGTKVTVL | 0.1 | 17.9 | 0.1 |  |
| NORO-303 (antibody, V domains shown) VH: QVQLVESGGGVVQPGRSLRLSCAASGFIFSSYAMHWVRQAPGKGLEWVAVMSYDGNNKYYADSVKGRFTISRDNSKNTLFLQMNSLRPEDTAVYYCARDCRVGWVFTYGMDVWGQGTLVTVSS VL: QSALTQPPSASGSPGQSVTISCTGTSSDVGGYNYVSWYQQHPGKAPKLMMYEISKRPSGVPIRFSGSKSGNTASLTVSGLQAEDEADYYCSSYAGTYNCVVFGGGTKLTVL |  | > 100 | 6.8 |  |
| NORO-329A (antibody, V domains shown) VH: QVQLVESGGGLVKPGGSLRLSCAASGFTFSDYYMSWIRQAPGKGLEWISYISSSFGSTDYAGSMKGRFTISRDNAKNSLYLQMNSLRAEDTAVYYCARYNYYGSGSFVFDYWGQGTLVTVSS VL: not shown |  |  |  | EC50 [1]: 35.8 µg/mL |
| NORO-251A (antibody, V domains shown) VH: QVQLVESGGGVVQPGRSLRLSCAASGFTFRSYGIHWVRQAPGKGLEWVALISYDGSSKYYADSVKGRFTISRDNSKNTLYLQMNSLRSEDTAVYYCAKVRLTSYSIGWFSFDYWGQGTLVTVSS VL: QSVLTQPPSVSAAPGQKVTISCSGSSSNIANYYVSWYQQLPGRAPKLLIYDNNKRPSGIPDRISGSKSGTSATLGITGLQTGDEADYYCGTWDTSLSAWVFGGGTKLTVL | 0.3 | > 100 |  | EC50 [1]: 4.1 µg/mL |
| NORO-296A (antibody, V domains shown) VH: QVQLVESGGGLVKPGGSLRLSCAASGFTFSEYYMSWVRQAPGKALEWVSYITSSFSSTSYADSVKGRFVISRDNAKNSLYLQMNSLRVEDTAVYYCARYGAEYGSRSFYFLDWGQGTLVTVSS VL: QSVLTQPPSVSGAPEQRVTISCTGSSSNIGAGYDVHWYQVLPGIAPKLLIYDNNKRPSGVPDRFSGSKSGTSASLAITGLQAEDEADYYCQSYDSRLSSNVVFGGGTKLTVL | 0.1 | 3.2 |  | EC50 [1]: 12.5 µg/mL |
| NORO-263 (antibody, V domains shown) VH: QVQLVESGGGLVKPGGSLRLSCAASGFTLSDYYMSWIRQAPGKGLEWVAYISSSHTSTYYRDSVKGRFTISRDSAKKSLYLQMNSLRVEDTAIYYCARDWVGGRSAYSDHWGQGTLVTVSS VL: SYELTQPPSVSVSPGQTARITCSGDALPRRPAFWYQQKSGQAPVLVMYDDSKRPSGIPERFSGSSSGTVATLTISGAQVEDEADYHCYSTDSSGKERVFGGGTKLTVL | 0.5 | 2.1 | 0.9 |  |
| NORO-178.6 (antibody, V domains shown) VH: QVQLVESGGGVVQPGRSLRLSCAASGFTFSTYGMNWVRQAPGRGLEWVADISYDGSNSRYADSVKGRFTISRDNSKNTLSLQMNGLRTEDTAVYYCAKDWYLAMAGAAFDSWGPGTLVTVSS VL: SSELTQDPVVSVALGQTVRITCQGDSLTTFYASWFQQKPGQAPALVLYGNDNRPSGIPDRFSGSRSGNTASLTITGAQAEDEADYYCNSRDSSGKPSFGGGTKLTVL |  |  |  | EC50 (GII.6 (AF414410) VLPs): 20 nM; EC50 [5]: 8 nM |
| NORO-317 (antibody, V domains shown) VH: QVQLVESGGGLVKPGGSLRLSCVASGFTFSDYYISWVRQAPGKGLEWVSYISAINSYTNYADSVRGRFTVSRDNAKKSVFLQMNSLRVDDTAVYYCARDVGGSVRYSSNSNKKSYNYFDPWGQGTLVTVSS VL: SYELTQPPSVSVSPGQTATITCSGDVLSKEFAYWYQQKPGQAPVLVIYKDNERPSGIPERFSGSTSGTTVTLTISGVLAEDEAHYYCQSVDTRGTYKVFGGGTKLTVL |  |  | 0.2 |  |
| 279A (antibody, V domains shown) VH: QVQLVESGGGVVQPGRSLRLSCAASGFTFTKYGMHWVRQAPGKGLEWVAFIAYDGSVKYYGDSAKGRFAISRDNPKNTVYLQMNSLRAEDTAVYYCAKVEIHYYSNSLLGMDVWGQGTLVTVSS VL: QSVLTQPPSASGTPGQRVTISCSGGNSNIGISYVYWYQHLPGTAPKLLISKNNLRPSGVPDRFSASKSGTSASLAISGLRSEDEAEYYCATLDINMTWVFGGGTKLTVL |  |  |  | EC50 (GII.3): 14 nM; EC50 (GII.17): 18 nM; EC50 (GI.3): 70 nM; EC50 (GII.13): 10 nM |
| NORO-313.1 (antibody, V domains shown) VH: QVQLVESGGGLVKPGGSLRLSCAASGFTFSDFYMSWIRQAPGKGLEWVGYISSIAGATNYADSVKGRFTISRDSSKRSLYLQMNSLRVEDTAVYYCARMGRLELERRPHYYYPLDVWGQGTLVTVSS VL: not shown | 0.1 | 2.1 | 0.8 |  |
| NORO-315B (antibody, V domains shown) VH: QVQLVESGGGLVKPGGSLRLSCVASGFTFSDYYMTWFRQTPGRGLEWLSYISAIGGYTEYADSVKSRFIISRDNGKKSLYLQMNSLRAEDSGVYYCAREDCHGTSCYSGDWGQGTLVTVSS VL: QSVLTQPPSVSGAPGQRVTISCTGSSSNIGAGYDVHWYQQLPGTAPKLLIYHNTNRPSGVPDRFSGSKSGTSAYLTITGLQAEDEADYYCQSYDRSLSKSRVFSGGTKLTVL | 0.5 | 2.2 | 0.3 |  |
| NORO-278 (antibody, V domains shown) VH: QVQLVESGGGVVQPGRSLRLSCAASGFTFSSYGMHWVRQAPGKGLEWVAVISYDGSNKYYADSVKGRFTISRDNSKNTLYLQMNSLRAEDTAVYYCAKVTIIAAADLLDYWGQGTLVTVSS VL: QSVLTQPPSVSGAPGQRVTISCTGSSSNIGAGYDVHWYQQLPGTAPKLLIYGNSNRPSGVPDRFSGSKSGTSASLAITGLQAEDEADYYCQSYDSSLSGPVVFGGGTKLTVL | 0.5 | > 100 | 68.5 |  |
| 202A.1 (antibody, V domains shown) VH: QVQLVQSGAEVKKPGASVKVSCKASEYTFTGYYLQWVRQAPGHGLEWMGWINPSGGTKYSQKFQGRVTMTRDTSITTVYMELSRLRSDDTAVYYCARDLLRNWGDHDAFDVWGQGTMVTVSS VL: QSVLTQPPSASETPGQGVTISCSGSSSNIGSNFVCWYQQVPGTAPKLLIYKNNQRPSGVPDRFSGSKSGTSASLAISGLRSEDEADYYCSAWDDSLSGPVFGGGTKLTVL |  |  |  | EC50 (GII.3): 41 nM; EC50 (GII.13): 4 nM |

Reference: US20210324050A1 (published 2021)
